Reference: article PMC2864300, “Regulation of NOXO1 Activity through Reversible Interactions with p22^phox and NOXA1” (PLoS ONE, 2010)

Legend:
[1] = target: human NOXO1 tandem SH3 domains (SH3AB) (human); test: ITC; data not shown; peptides of the human NOXO1 C-terminal tail titrated against human NOXO1 SH3 domains
[2] = target: human NOXO1 tandem SH3 domains (SH3AB) (human); test: ITC; MicroCal VP-ITC, 18°C; 150 mM NaCl, 1 mM DTT, 50 mM HEPES pH 7.4; typically 20–40 µM protein in the cell, 200–300 µM ligand injected; single-site binding model; averaged over three to five experiments

Row | Kd [1] [µM] | Kd [2] [µM] | Binder
1 | 50 | – | TAPPPTVPTRPSPGAIQSRCCTVTRRALE [peptideA (amino acids 319–347 of human NOXO1)]
2 | – | 50 | TAPPPTVPTRPS [shorter version of peptideA, which only contains the proline rich region]
